# According to publication PMC8050384:
# Target: transmembrane tumor necrosis factor (tmTNF) knock-in mutant, on bone-marrow-derived macrophages of 3TG mice (TNFR1-/-, TNFR2-/-, tmTNF KI/KI) (mouse (endogenous in BMDMs)) (UniProt P06804)
substance,measurement,value
"etanercept, a soluble form of TNFR2 coupled to human Fc domain (from UniProt P20333 23-257) (Fc fusion)","internalization score of ETA-488 in 3TG BMDMs at 20 min, imaging cytometry",0.73
